Changes are numbered by the printed parent chain. Names may count otherwise. Each block holds one binder with its values, some of them ahead of it.
Assays:
[1] = molecular target: T1, rHuman ErbB2/Fc Chimera, CF (R&D Systems Cat#1129-ER) (human, UniProt P04626 23-652); experiment: ECL Multispot (MSD), 10 nM Fab; blank 198
T1 construct: Bought reagent; also called human epidermal growth factor 2 receptor; Fc part of the bought chimera not given

[2] = molecular target: T2, rHuman Erythropoietin R/Fc Chimera, CF (R&D Systems Cat#963-ER) (human, UniProt P19235 25-250); experiment: ECL Multispot (MSD), 10 nM Fab; blank 198
T2 construct: Bought reagent; also called EPO R; EPO R/Fc; Fc part of the bought chimera not given
T2 sequence (looked up): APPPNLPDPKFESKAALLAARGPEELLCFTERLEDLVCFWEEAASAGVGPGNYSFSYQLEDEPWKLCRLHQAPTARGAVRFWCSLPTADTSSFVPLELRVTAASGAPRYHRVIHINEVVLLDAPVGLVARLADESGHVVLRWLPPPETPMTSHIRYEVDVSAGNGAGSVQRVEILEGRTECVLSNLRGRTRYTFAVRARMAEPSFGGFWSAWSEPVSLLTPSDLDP

[3] = molecular target: T3, rHuman P-Cadherin/Fc Chimera, CF (R&D Systems Cat#861-PC) (human, UniProt P22223 108-654); experiment: ECL Multispot (MSD), 10 nM Fab; blank 198
T3 construct: Bought reagent; Fc part of the bought chimera not given

[4] = molecular target: T4, rHuman IGF-1 sR, CF (R&D Systems Cat#391-GR) (human, UniProt P08069 31-932); experiment: ECL Multispot (MSD), 10 nM Fab; blank 198
T4 construct: Bought soluble receptor; also called insulin-like growth factor-1 soluble receptor

[5] = molecular target: T5, rHuman CD44/Fc Chimera, CF (R&D Systems Cat#3660-CD) (human, UniProt P16070 21-220); experiment: ECL Multispot (MSD), 10 nM Fab; blank 198
T5 construct: Bought reagent; Fc part of the bought chimera not given

[6] = molecular target: T6, rHuman HGF R/c-MET/Fc Chimera, CF (R&D Systems Cat#358-MT/CF) (human, UniProt P08581 25-932); experiment: ECL Multispot (MSD), 10 nM Fab; blank 198
T6 construct: Bought reagent; also called HGF R/Fc; hepatocyte growth factor receptor; Fc part of the bought chimera not given

[7] = molecular target: T7, rHuman EGF R/Fc Chimera, CF (R&D Systems Cat#344-ER) (human, UniProt P00533 25-645); experiment: ECL Multispot (MSD), 10 nM Fab; blank 198
T7 construct: Bought reagent; also called epidermal growth factor receptor; Fc part of the bought chimera not given

[8] = molecular target: T8, rHuman Notch-1/Fc Chimera, CF (R&D Systems Cat#3647-TK) (human, UniProt P46531 19-526); experiment: ECL Multispot (MSD), 10 nM Fab; blank 198
T8 construct: Bought reagent; Fc part of the bought chimera not given

[9] = molecular target: T1, rHuman ErbB2/Fc Chimera, CF (R&D …); experiment: ECL Multispot (MSD), 10 nM Fab; blank 372
[10] = molecular target: T2, rHuman Erythropoietin R/Fc Chimera, CF …; experiment: ECL Multispot (MSD), 10 nM Fab; blank 372
[11] = molecular target: T3, rHuman P-Cadherin/Fc Chimera, CF (R&D …); experiment: ECL Multispot (MSD), 10 nM Fab; blank 372
[12] = molecular target: T4, rHuman IGF-1 sR, CF (R&D Systems …); experiment: ECL Multispot (MSD), 10 nM Fab; blank 372
[13] = molecular target: T5, rHuman CD44/Fc Chimera, CF (R&D Systems …); experiment: ECL Multispot (MSD), 10 nM Fab; blank 372
[14] = molecular target: T6, rHuman HGF R/c-MET/Fc Chimera, CF (R&D …); experiment: ECL Multispot (MSD), 10 nM Fab; blank 372
[15] = molecular target: T7, rHuman EGF R/Fc Chimera, CF (R&D …); experiment: ECL Multispot (MSD), 10 nM Fab; blank 372
[16] = molecular target: T8, rHuman Notch-1/Fc Chimera, CF (R&D …); experiment: ECL Multispot (MSD), 10 nM Fab; blank 372
[17] = molecular target: T1, rHuman ErbB2/Fc Chimera, CF (R&D …); experiment: ECL Multispot (MSD), 10 nM Fab; blank 320
[18] = molecular target: T2, rHuman Erythropoietin R/Fc Chimera, CF …; experiment: ECL Multispot (MSD), 10 nM Fab; blank 320
[19] = molecular target: T3, rHuman P-Cadherin/Fc Chimera, CF (R&D …); experiment: ECL Multispot (MSD), 10 nM Fab; blank 320
[20] = molecular target: T4, rHuman IGF-1 sR, CF (R&D Systems …); experiment: ECL Multispot (MSD), 10 nM Fab; blank 320
[21] = molecular target: T5, rHuman CD44/Fc Chimera, CF (R&D Systems …); experiment: ECL Multispot (MSD), 10 nM Fab; blank 320
[22] = molecular target: T6, rHuman HGF R/c-MET/Fc Chimera, CF (R&D …); experiment: ECL Multispot (MSD), 10 nM Fab; blank 320
[23] = molecular target: T7, rHuman EGF R/Fc Chimera, CF (R&D …); experiment: ECL Multispot (MSD), 10 nM Fab; blank 320
[24] = molecular target: T8, rHuman Notch-1/Fc Chimera, CF (R&D …); experiment: ECL Multispot (MSD), 10 nM Fab; blank 320
[25] = molecular target: T9, rHuman IGF-1 sR, CF (R&D Systems Cat#391-GR) (human, UniProt P08069 31-932); experiment: ECL Multispot (MSD) assay, antigen spotted on plate, 10 nM Fab; blank spot of this row 290
T9 construct: Bought soluble receptor; The column head prints only 'IGF-1'; also called insulin-like growth factor-1 soluble receptor

[26] = molecular target: T10, rHuman EGF R/Fc Chimera, CF (R&D Systems Cat#344-ER) (human, UniProt P00533 25-645); experiment: as above
T10 construct: Bought reagent; also called epidermal growth factor receptor; Fc part of the bought chimera not given

[27] = molecular target: T11, rHuman HGF R/c-MET/Fc Chimera, CF (R&D Systems Cat#358-MT/CF) (human, UniProt P08581 25-932); experiment: as above
T11 construct: Bought reagent; also called HGF R/Fc; hepatocyte growth factor receptor; Fc part of the bought chimera not given

[28] = molecular target: T12, rHuman P-Cadherin/Fc Chimera, CF (R&D Systems Cat#861-PC) (human, UniProt P22223 108-654); experiment: as above
T12 construct: Bought reagent; Fc part of the bought chimera not given

[29] = molecular target: T13, rHuman ErbB2/Fc Chimera, CF (R&D Systems Cat#1129-ER) (human, UniProt P04626 23-652); experiment: as above
T13 construct: Bought reagent; also called human epidermal growth factor 2 receptor; Fc part of the bought chimera not given

ECL signal [1]: 200
ECL signal [2]: 228
ECL signal [3]: 280
ECL signal [4]: 230
ECL signal [5]: 214
ECL signal [6]: 258
ECL signal [7]: 255
ECL signal [8]: 336
ECL signal [9]: 513
ECL signal [10]: 252
ECL signal [11]: 338
ECL signal [12]: 318
ECL signal [13]: 298
ECL signal [14]: 339
ECL signal [15]: 460
ECL signal [16]: 433
ECL signal [17]: 413
ECL signal [18]: 421
ECL signal [19]: 301
ECL signal [20]: 270
ECL signal [21]: 385
ECL signal [22]: 269
ECL signal [23]: 324
ECL signal [24]: 390
B1: Fab VH1-46_IGHD6-6*01_IGHJ1*01 S102A/S103P/S104F (APF) & L6_IGKJ1*01 (Fab, V domains shown)
VH: QVQLVQSGAEVKKPGASVKVSCKASGYTFTSYYMHWVRQAPGQGLEWMGIINPSGGSTSYAQKFQGRVTMTRDTSTSTVYMELSSLRSEDTAVYYCAREEYAPFSAEYFQHWGQGTLVTVSS
VL: not shown
notes: Tested as a Fab made in E. coli; The heavy chain plasmid A adds CH1 with His6 and Flag tags; The light chain plasmid C adds kappa CL; also called H:APF & L:wt; APF triple mutant

ECL signal [25]: 345
ECL signal [26]: 409
ECL signal [27]: 493
ECL signal [28]: 461
ECL signal [29]: 370
B2: Fab VH1-46_IGHD6-6*01_IGHJ1*01 S102A/S103P/S104F/H111F (APFF) & L6_IGKJ1*01 (Fab, V domains shown)
VH: B1 VH with H111F
VL: not shown
notes: Fab format as for APF (CH1 and kappa CL from the expression plasmids); also called APF H111F; H:APFF & L:wt
